Experiments:
LRP5 = LRP5 (Homo sapiens, UniProt O75197); test: 125I-Mesd binding to HEK293 cells transiently transfected with LRP5; design: Plasmid pcDNA3.1C-Myc-hLRP5 containing the full-length human LRP5 cDNA; expressed in transfected cells; host or cells: HEK293 cells, transient transfection; conditions: 125I-Mesd 5 nM, 4 hours at 4° C.
Procedure: Cells (2×10^5) were seeded into 12-well dishes 1 day prior to assay. Ligand-binding buffer (minimal Eagle's medium containing 0.6% BSA with a different concentration of radioligand, 0.6 ml/well) was added to cell monolayers, in the absence or the presence of 500 nM unlabeled RAP or 500 nM unlabeled Mesd, followed with incubation for 0-4 hours at 4° C. Thereafter, overlying buffer containing unbound ligand was removed, and cell monolayers were washed and lysed in low-SDS lysis buffer (62.5 mM Tris-HCl pH 6.8, 0.2% SDS, 10% v/glycerol) and counted.
To determine whether Mesd binds to other members of the LDLR family, ^125I-Mesd binding analysis was performed with four groups of cells expressing different members of the LDLR family (FIG. 2). In the first experiment, HEK293 cells were transiently transfected with cDNAs for the LDLR, LRP5, LRP6 or empty pcDNA3 vector. […]

[1] = Side effects on non-tumor tissues of treated mice (H&E staining, x-ray, weight)
Procedure: Hemotoxylin and eosin (H&E) staining was performed on tumor xenograft tissue, skin and intestine harvested at the end of Mesd treatment.
FIG. 24D: H&E staining of tail vertebrae treated with PBS, Mesd or Mesd peptide.

MMTV-Wnt1 tumors = test: MMTV-Wnt1 tumor transplant growth in nude mice; assay type: in vivo; conditions: i.p. every other day, first dose 15 mg/kg then 10 mg/kg, three weeks
Procedure: Recombinant Mesd protein was prepared as described (Li Y, et al. (2005) J Cell Sci 118(22): 5305-5314). Mesd peptide, […] (SEQ ID NO: 14), was manufactured by Abgent (San Diego). Female athymic nude mice (Taconic) (6-8 weeks old) were used for passaging tumors from MMTV-Wnt1 mice (Taconic). MMTV-Wnt1 tumors were serially passaged in mice by implantation in the mammary fat pad as described (DeAlmeida V, et al. (2007) Cancer Res 67, 5371-5379). Therapeutic agents (200 μL Mesd protein, Mesd peptide or PBS) were administrated i.p. with a first dose of 15 mg/kg, followed by 10 mg/kg (9 more doses). Three groups of mice were treated every other day for three weeks and tumor volumes were measured thrice weekly.
The pharmacokinetics and bioavailability of Mesd and Mesd peptide ([…] (SEQ ID NO: 14)) were first investigated (FIG. 23). Cells from MMTV-Wnt1 tumors were injected into the mammary fat pads of female nude mice, and the resultant mice were subsequently randomly grouped when the mean tumor volume reached ca. 200 mm^3. […]
In these experiments, mice bearing established MMTV-Wnt1 tumor transplants were divided into three groups (five animals per group) and were i.p. injected with PBS (vehicle), Mesd, or Mesd peptide every other day. Tumor volume was analyzed using caliper measurement. […]

LRP5, sequence (O75197 32-1615): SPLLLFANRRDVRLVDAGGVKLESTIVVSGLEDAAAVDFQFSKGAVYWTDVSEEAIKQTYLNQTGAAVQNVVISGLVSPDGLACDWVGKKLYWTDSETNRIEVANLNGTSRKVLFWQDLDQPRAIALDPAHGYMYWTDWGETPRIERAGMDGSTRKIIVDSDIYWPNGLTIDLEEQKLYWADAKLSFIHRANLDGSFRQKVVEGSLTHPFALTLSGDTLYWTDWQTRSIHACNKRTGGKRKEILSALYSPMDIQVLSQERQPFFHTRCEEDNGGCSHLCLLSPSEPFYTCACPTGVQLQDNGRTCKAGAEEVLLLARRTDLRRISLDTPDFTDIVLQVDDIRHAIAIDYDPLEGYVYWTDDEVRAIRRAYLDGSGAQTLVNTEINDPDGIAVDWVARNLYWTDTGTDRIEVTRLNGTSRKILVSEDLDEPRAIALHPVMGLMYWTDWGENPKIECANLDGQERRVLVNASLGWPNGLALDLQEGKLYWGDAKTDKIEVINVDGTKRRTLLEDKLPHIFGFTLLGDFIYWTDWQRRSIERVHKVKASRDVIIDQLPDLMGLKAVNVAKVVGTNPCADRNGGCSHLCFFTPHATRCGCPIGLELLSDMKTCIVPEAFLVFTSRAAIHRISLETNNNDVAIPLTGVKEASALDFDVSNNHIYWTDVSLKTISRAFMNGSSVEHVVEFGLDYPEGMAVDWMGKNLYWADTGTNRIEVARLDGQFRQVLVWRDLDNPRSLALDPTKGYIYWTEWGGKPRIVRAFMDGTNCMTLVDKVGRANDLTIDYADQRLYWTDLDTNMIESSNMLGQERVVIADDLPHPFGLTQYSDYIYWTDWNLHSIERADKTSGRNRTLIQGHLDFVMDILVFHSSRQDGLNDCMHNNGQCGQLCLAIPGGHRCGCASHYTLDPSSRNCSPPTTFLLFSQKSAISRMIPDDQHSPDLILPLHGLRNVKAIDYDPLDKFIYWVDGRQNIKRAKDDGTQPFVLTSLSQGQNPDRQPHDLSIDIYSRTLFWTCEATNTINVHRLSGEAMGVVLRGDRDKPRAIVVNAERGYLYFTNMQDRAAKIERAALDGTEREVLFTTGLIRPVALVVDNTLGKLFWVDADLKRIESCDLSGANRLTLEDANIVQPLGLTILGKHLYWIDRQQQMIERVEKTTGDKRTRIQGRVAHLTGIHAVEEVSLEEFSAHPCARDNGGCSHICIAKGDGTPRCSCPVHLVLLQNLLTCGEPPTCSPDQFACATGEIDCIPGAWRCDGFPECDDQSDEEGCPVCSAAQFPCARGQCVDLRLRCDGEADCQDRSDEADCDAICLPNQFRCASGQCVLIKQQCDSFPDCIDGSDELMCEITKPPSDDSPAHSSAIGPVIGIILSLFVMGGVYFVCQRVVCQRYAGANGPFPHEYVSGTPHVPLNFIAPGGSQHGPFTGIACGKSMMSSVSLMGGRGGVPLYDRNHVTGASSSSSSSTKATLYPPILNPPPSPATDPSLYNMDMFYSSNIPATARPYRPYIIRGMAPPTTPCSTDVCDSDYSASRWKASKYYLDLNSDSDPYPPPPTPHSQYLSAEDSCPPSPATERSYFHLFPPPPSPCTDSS

B1: Mesd: Recombinant full-length mouse Mesd expressed in E. coli, N-terminal polyhistidine tail, lacking the signal peptide (protein)
chain: ADTPGEATPPPRKKKDIRDYNDADMARLLEQWEKDDDIEEGDLPEHKRPSAPIDFSKLDPGKPESILKMTKKGKTLMMFVTVSGNPTEKETEEITSLWQGSLFNANYDVQRFIVGSDRAIFMLRDGSYAWEIKDFLVSQDRCAEVTLEGQMYPGKGGGSKEKNKTKPEKAKKKEGDRKPRASKEDNRAGSRREDL
modifications: left off: small tags and cut ends
notes: Recombinant full-length mouse Mesd expressed in E. coli, N-terminal polyhistidine tail, lacking the signal peptide
Mesd binding to LRP5 (LRP5): specifically binds to Mesd, albeit at lower levels compared to LRP6 | Adverse effect on small intestine (gross examination) ([1]; FIG. 17E): no significant adverse effect | Architecture of gastrointestinal compartments and skin (H&E) ([1]; after 10 treatments): morphologically normal | Bone lesions or outgrowths in tail vertebrae ([1]; conditions in which antitumor efficacy was achieved): no significant bone lesions or outgrowths | General health and body weight of treated mice ([1]; mouse, in vivo): grossly healthy and maintain their weights | Tumor growth (tumor volume, caliper) (MMTV-Wnt1 tumors): significantly inhibit tumor growth

Reference: patent publication US8198236B2, “Methods and compositions for the treatment of cancer” (Washington University, priority 2007, dated 2012)
